Experimental data: the DeepSol protein solubility set

Assay: soluble on expression in E. coli; label from the status in PepcDB or PDB records

Row | Sequence | soluble on expression in E. coli
1 | MSETGTRISPLFSHRRWKLQVLDLQDVCENFWMVWSEAMARGCFLNAKRNKKPVQDCPRMRGRQPLTVFVELWLKNRTLDEHLTCLLLWVKQRKDLLHLCCKKLKILGMPFRNIRSILKMVNLDCIQEVEVNCKWVLPILTQFTPYLGHMRNLQKLVLSHMDVSRYVSPEQKKEIVTQFTTQFLKLHCLQKLYMNSVSFLEGHLDQLLSCLKTSLKVLTITNCVLLESDLKHLSQCPSISQLKTLDLSGIRLTNYSLVPLQILLEKVAATLEYLDLDDCGIIDSQVNAILPALSRCFELNTFSFCGNPISMATLENLLSHTIILKNLCLELYPAPRESYGADGTLCWSRFTQIRAELMKRVRDLRHPKRILFGTDYCPDCGNRSFYDLEADQYCC | not soluble
2 | MKHLLLASLLGSAMAMSSLVMAADTDLKTLEAAAKAEGAVNSLGMPDDWANWGGIWKDLETKYGLKHMDTDMSSAQEIAKFDAEKDNASGDIGDVGAAFGPIAVAKGVTQPYKPTTWEQIPDWAKDKDGHWALAYTGTIAFIVNKNLLHGSEIPKSWADLKTGKYKVSIGDVSTAAQATNGVLAAAIAMKGDESNIEPGLALFTDLAKQKRLSLANPTIQTIEKGEIEVGVVWDFNGLNYKAKMAKPDDYVVLIPSDGSVVSGYTTIINKYAKHPNAAKLAREYTFSDAGQINLAKGNARPIRVEHIKLPDDVKAQLLPHEQYLNAKPIKDADAWEKTSKALPQKWNEQVIIEMN | not soluble
3 | MGSDKIHHHHHHMLTTVKEKIEALNSEVSYRVKLWQYAPNLPKVESRDRLIVDTLKSEGVYITTLQELGLPSTAQLLKASHTLLPGMGQGSYAESAQNPPEIYTVTHIPDFYNWGSESRLLNILENYIGLPVAYHGVQIRKDFVNANQFSTMLWHRDSEDRRIVKIIIYLSDVEEKHGPFEYVPASFTSIDSLNFYRLYYKIHKSGINDEALNKIVPKSAWKSCTGPAGSVIIADTQRLLHHGTVRTEERSTLFYAYTANPAKRPGLCTQYWDDTFPKPNYS | not soluble
4 | MGSDKIHHHHHHCPVNWVEFGGSCYWFSRDGLTWAEADQYCQLENAHLLVINSREEQDFVVKHRSQFHIWIGLTDRDGSWKWVDGTDYRSNYRNWAFTQPDNWQGHEQGGGEDCAEILSDGHWNDNFCQQVNRWVCEKRR | not soluble
5 | MSLSEENVKLAEELIRKGYNEKKIRSLLKLPDEEFKLALEVARARIKAKDKFSRSDLWFDLEGLRYATHEVVADYRGRRLKGQGVKSIADVSCGVGIQLIFFAKHGIRSVGIDIDPIKIEFAKRNAEKYGVEVEWVVGDALSPEIIEKVDAEVIFSDPARPPEVPERNLEDLLPSPLKIYEAYKHKTDSFIFDLPPQIRREKVPWKGEFEYIDLFGHVNRLTFYTEPLAKAERSAVILPQGARLESNPDLENIVEETMEPERYIYEIPQSIDYADLINELFHKVNGELKLLLREKRRILATSNDEVKSEYFKRSYIVVKVMPFHPVRINDFLRREGYGRATLRMSVDEKEYWRIRKKIESGLSGDKRAFVFKVRDLAVIAEEIPQAEGHHHHHH | soluble
6 | MGSDKIHHHHHHMAADVATPFQQLRINKFAAIQNGQFVASFKVPRSAGFTLIIPNADDFLTNNISIMTPDNKVLDASNFAAFGVEFSQFSPDNELTAFLATGNSWIIKFSDVIPGSYTVRGVTSSAKSHLPIRVLVKNSDIALHLVIGSPSNIPMVNHHLPISVLMVDGDLPYINGNVSFEIFKDGEALQHANIRDDGVYPDYQANDGTYSTLFMPLSAGVYDVLINISGRNKNGDKFEAQIFRSFKVLQDNVYLTGKHSEVLIDEDGDGYNDALMLEFETGGVFQEEGVYYITVNLETNDGRTLVAHQRIESPEKKFYVKFDGKYLGTLDYSGAFKFFSIVIEYNDSIIHLNQSFGSTSYYDHDSWERDDLLYLGNVTFEPIYSADGRFIEMIDVSFEVDTLPTAARFGYSATITTVGNEHVGVYGNPDIELKKGINRITFSIPAADFAKLQSNTALKISQLTMYPLIKGGNVISKRNVATSELYSCWDFRGCSTAENAIPVAVDDEVTSTGKAMYIHVAQNDYDGDLLKVSDQKKDNFGTLTQWSIQFD | not soluble
7 | MNTSILAPPESLLEAQKVRLAIREGYDRPTAGMANGLTQVNMISVPQDWAYDFLLYTQRNPQSCPVLDVIDAGQFQSRLIQDKQHDIRTDFPRYRIWEYGQCVDEVNDATSIWNNHPDLVTFLIGCSFSFESALLNAGIEVRHITDQRNVPMYLSNIPCASAGRISGNMVVSMRPIPAAQVSQAVQITAKMPRVHGAPVHIGDPKSLGIADLSKPDFGDFPRILDGEIPVFWACGVTPQAAVMRSKVPFAISHAPGYMLITDVPDQAWMLLEHHHHHH | not soluble
8 | MEGLFESLPEGYREKLGRPGEYPFTRGIYPRMYLERLWTMRQYAGFSTAEESNARYRYLLSQGQTGLSVAFDLPTQLGLDPDHPMSVGEVGRVGVSIATLEDMQKLFDGIPLDQVSTSMTINAPAMMLLALYLLVAEAQGVPWDKVSGTVQNDILKEYFARGTYIYPPGPSMRLVTDIFEFCAAHVPRWNTISISGYHIREAGSTAAQEIAFTLADAKAYVRAALERGLDVDRFAPRLSFFFAAHGDIFEEAAKFRAARRLWARIMREEFGAKDPKSWMLRFHTQTGGSTLTAQEPLNNVVRTAYQALAAVLGGTQSLHTNAYDEALGLPTEKSALLALRTQQILAYESGVTRAIDPLGGSFYVEHLTDKLEREAEQILREIDALGGAVAAVEAGYFQRALEESAWQFQKEVEEGKRVIVGVNRFFDPNSPLNEPVPVQRIDPELHERRKRELAAFKANRDGESVRVGLERLREAARGEENLFPYVLEAFRRRATLGEVCGVLREEWGEYQPPR | soluble
9 | MTLIPPVQAIAGTSAAATQALSPVATPNQALVNRFQALMQSSSPLPPAMQRVGNPSMMSRVVDVQNDGVRTIAEHIDAFSMQAPTMGLQEMAAQQIKLMHELTMVGFNLNVSVGVAQSGKNAVQTLVKNQ | not soluble
10 | MGSDKIHHHHHHMEHNRVLRLEHGINFRELGGYENTAGQTIKWQKLLRCGGMSLLTNRDLTYLDNYGLRYDIDLRQANEAEMSPDRYPKNTKYINTSVYPFTDNRRFDRRLKRLIKRMVVDDSFNAQTYAQMITDSHAVKVWQNLFATLLANDQPDQSVLFHCAAGKDRTGVAGALIMTALDVPRETIMQDYLLTNAVFMAADSMDTATIITKANAGDLASQFNVAMAVEADNMKMVFRVFDDLYGNGIGYLREVLGLSVADINNLRQLYLND | not soluble
11 | MEHKKSTDSRSCSQLSTSMDNIQRNLMLLEIEKNEKSSFDDVITGAESDNGWEDCLRETESVQSQWITEQSTIAYPETTRVNCDGPQSYYELADLNYKPAENTVRLARVPSQYQLDALSEIFVFDVPQHIAVKKVEASFLPKYVNTSSEVAQNSVNTTPYFVNSEYVSEMLCNEYSETY | not soluble
12 | TSDQRKAEEHIEKEAKYLASLLDAGNLNNQANEKIIKDAGGALDVSASVIDTDGKVLYGSNGRSADSQKVQALVSGHEGILSTTDNKLYYGLSLRSEGEKTGYVLLSASEKSDGLKG | not soluble
13 | MSLHSLQRKVLRTICPDQKGLIARITNICYKHELNIVQNNEFVDHRTGRFFMRTELEGIFNDSTLLADLDSALPEGSVRELNPAGRRRIVILVTKEAHCLGDLLMKANYGGLDVEIAAVIGNHDTLRSLVERFDIPFELVSHEGLSRNEHDQKMADAIDAYQPDYVVLAKYMRVLTPEFVARFPNKIINIHHSFLPAFIGARPYHQAYERGVKIIGATAHYVNDNLDEGPIIMQDVIHVDHTYTAEDMMRAGRDVEKNVLSRALYKVLAQRVFVYGNRTIILEGHHHHHH | soluble
14 | MNSSLSLLHPYPFEKLNVLFKDVTPADLPLIPLSIGEPKHPAPEFVKQAIIDNFNHLSTYPNSKGLPELRESIARWLTQRFQLNHISSEDHILPVTGTREGIFSFVQALINRDEAPYVVMPNPFYQIYEGATLLAGAKPYFINCTAENDYLGDFDAVPSEVWEKTALLFVCTPGNPTGAVLSKEKLKKLIQLSDQYNFVIASDECYSELWFDQAPVGLLEVCAEIGRDNYKNCIVFHSLSKRSNLPGMRSGFVAGDAELLKPYLKFRTYHGAAMPVQHQLASIAAWNDEAHVEENRQQYRAKFNLFQSELGQLIPLKKPDAGFYYWLHVDNDEAFAKMLMEKAHIKVLPGRYLSRETEQGNPGENHVRMALVADLAQCEQVVQRLKKVL | not soluble
15 | SAAANPWDPASAPNGAGLVLGHFIASGMVNQEMLNMSKKTVSCFVNFTRLQQITNIQAEIYQKNLEIELLKLEKDTADVVHPFFLAQKCHTLQSMNNHLEAVLKEKRSLRQRLLKPMCQENLPIEAVYHRYMVHLLELAVTFIERLETHLETIRNIPHLAANLKKMNQALAKMDILVTETEELAENILKWRKQQNEVSSCIPKILAEESYLYKHDIIMPPLPFTSKVHVQTINAK | soluble
16 | MTDSQSTQMGRGRHAKRNKSTASVGSKKNRTQSTASGKFQPSDGFTTFIVAVSRLGKQGQEFTWHDLRKVYHKETQRQLTAEELNAIFSSKNLTKREIFELPKVKRFMTSMDGSMMCRFRLIADPQEVYDDDLPPLMSTSVETDVITEDTSSDHSQAVSPSSGNPIAISTDCDDKAAGPTSDLSKSDNSPSQRSLAQQSSMTDDEGWVSGKDVRSENSSPVEDKDEVDGSKMEMEDDVFEEDQRIAAESDQVDSAMVADVIIVEEAKVEKLFKAQEIVAPIVLTESIDAAFEAVIQSVSHADATLSMTQNASEEAKVHATPPLPAERKTMVSAELANGKPIKHLIEKFDAGVNFAEHKPKSIYAQVLEEIGGSAPRVDEVFSASKKEEHAETEVTNVIFRSTSTHSSIIANGKEQLAEFVAEQEARQKVTTPNPVKEETENAFCAKEQSSMSSLDREYFASKTKLNEDLFAELGVKDTDGFQLKTVDSNGSGPGSSEIITVIETPLKDDHRKRADSVESDADVPYSLCSEDEAEPMTMIDKSMKVSQSAEQLSPVKEEQKAKTVVVNVELDGNRADPTIKDRIAALQAIVSKQHVPIAKVDSVDDDVRILSRTEELQHMALEAKPSPQALGALRRRHVRFMRGCCVVQ | soluble
17 | MGSDKIHHHHHHMTRSFYWVDHSTQTFAERDLSKTVVVLPIAAVEQHGPHLPVDVDAAINAEIIRRTVARLQPDTDVLFLPPMMVGKSDEHIAFPGTLAISGETLRHVWLDLARSVKRAGAAKLILFNSHGGQMALMDIVCRDIRIELGMLAVSCSWFRIAPVEDLFSRAEIDHGIHGGDIETSMMLAIAPERVAMDKAENFVPLTVAIEKSGSMLTAEGAVGFGWQAQDLHPAGVCGNASNATAQKGQIVLDRAADGLVSLIAATQAFDLSQLTSQTRFSNLCRARRIP | not soluble
18 | EHEHNYHPNAVAAGLRAGRTRSIGLVIPDLENTSYTRIANYLERQARQRGYQLLIACSEDQPDNEMRCIEHLLQRQVDAIIVSTSLPPEHPFYQRWANDPFPIVALDRALDREHFTSVVGADQDDAEMLAEELRKFPAETVLYLGALPELSVSFLREQGFRTAWKDDPREVHFLYANSYEREAAAQLFEKWLETHPMPQALFTTSFALLQGVMDVTLRRDGKLPSDLAIATFGDNELLDFLQCPVLAVAQRHRDVAERVLEIVLASLDEPRKPKPGLTRIKRNLYRRGVLSRS | soluble
